Measurements taken from paper PMC5827114, “A cryptic RNA-binding domain mediates Syncrip recognition and exosomal partitioning of miRNA targets”.
Numbering of substitutions follows the chain as printed.

Experiments:
Syncrip NeR1R2R3 [1] = target: T1, Syncrip NeR1R2R3 (Homo sapiens, UniProt O60506 16-428); assay: BLI; BLI: 5 mM Tris-HCl pH 7.4, 50 mM NaCl, 1 mM TCEP, 0.5 mg/mL BSA, 30 C; NMR: 5 mM Tris-HCl pH 7.4, 50 mM NaCl, 0.5 mM TCEP; conditions: protein: recombinant; tags: His6-SUMO or His, removed by HRV 3C; label: 5'-biotin
T1 sequence: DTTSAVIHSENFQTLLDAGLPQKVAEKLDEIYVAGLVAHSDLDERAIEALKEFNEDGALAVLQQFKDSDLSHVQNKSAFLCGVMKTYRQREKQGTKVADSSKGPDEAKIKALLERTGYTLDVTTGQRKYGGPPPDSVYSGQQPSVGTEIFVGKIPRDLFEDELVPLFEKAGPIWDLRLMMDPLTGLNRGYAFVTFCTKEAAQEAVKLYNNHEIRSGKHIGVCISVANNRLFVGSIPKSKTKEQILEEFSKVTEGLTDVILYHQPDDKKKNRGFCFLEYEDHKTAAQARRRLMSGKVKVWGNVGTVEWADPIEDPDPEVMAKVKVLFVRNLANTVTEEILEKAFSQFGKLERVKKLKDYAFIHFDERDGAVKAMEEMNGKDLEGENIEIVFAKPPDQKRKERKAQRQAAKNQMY

Syncrip NeR1R2R3 [2] = target: T1, Syncrip NeR1R2R3; assay: as above; conditions: protein: recombinant; tags: His6-SUMO or His, removed by HRV 3C; label: 5'-biotin (BLI)
Syncrip NURR domain (N) [3] = target: T2, Syncrip NURR domain (N) (Homo sapiens, UniProt O60506 16-109); assay: as above; conditions: protein: recombinant; tags: His6-SUMO or His, removed by HRV 3C; label: 5'-biotin
T2 sequence: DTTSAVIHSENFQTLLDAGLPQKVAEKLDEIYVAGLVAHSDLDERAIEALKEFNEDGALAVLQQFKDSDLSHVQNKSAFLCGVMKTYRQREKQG

Syncrip NeR1 R60A G97L = target: T3, Syncrip NeR1 R60A G97L (Homo sapiens, UniProt O60506 16-242, R60A;G97L); assay: NMR; 50 uM protein, 1:1 and 1:2; legend: binding eliminated (text: impaired); BLI: 5 mM Tris-HCl pH 7.4, 50 mM NaCl, 1 mM TCEP, 0.5 mg/mL BSA, 30 C; NMR: 5 mM Tris-HCl pH 7.4, 50 mM NaCl, 0.5 mM TCEP; conditions: protein: recombinant; tags: His6-SUMO or His, removed by HRV 3C
T3 sequence: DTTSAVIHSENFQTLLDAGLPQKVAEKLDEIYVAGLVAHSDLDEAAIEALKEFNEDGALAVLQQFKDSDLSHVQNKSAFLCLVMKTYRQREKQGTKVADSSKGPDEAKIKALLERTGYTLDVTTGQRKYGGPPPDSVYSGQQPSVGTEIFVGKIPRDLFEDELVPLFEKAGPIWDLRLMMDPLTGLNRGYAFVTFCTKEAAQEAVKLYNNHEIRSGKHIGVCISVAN

Syncrip NeR1R2R3 [4] = target: T1, Syncrip NeR1R2R3; assay: NMR; only NURR resonances shift; BLI: 5 mM Tris-HCl pH 7.4, 50 mM NaCl, 1 mM TCEP, 0.5 mg/mL BSA, 30 C; NMR: 5 mM Tris-HCl pH 7.4, 50 mM NaCl, 0.5 mM TCEP; conditions: protein: recombinant; tags: His6-SUMO or His, removed by HRV 3C
Syncrip NURR domain (N) [5] = target: T2, Syncrip NURR domain (N); assay: NMR; BLI: 5 mM Tris-HCl pH 7.4, 50 mM NaCl, 1 mM TCEP, 0.5 mg/mL BSA, 30 C; NMR: 5 mM Tris-HCl pH 7.4, 50 mM NaCl, 0.5 mM TCEP; conditions: protein: recombinant; tags: His6-SUMO or His, removed by HRV 3C
Syncrip NeR1 = target: T4, Syncrip NeR1 (Homo sapiens, UniProt O60506 16-242); assay: NMR; 50 uM protein, 1:1 and 1:2; BLI: 5 mM Tris-HCl pH 7.4, 50 mM NaCl, 1 mM TCEP, 0.5 mg/mL BSA, 30 C; NMR: 5 mM Tris-HCl pH 7.4, 50 mM NaCl, 0.5 mM TCEP; conditions: protein: recombinant; tags: His6-SUMO or His, removed by HRV 3C
T4 sequence: T3 sequence with A45R, L82G

## UCACUUUGUAGACCAAGUGUU (ssRNA) [chimera miR-3470 (delta-hEXO mutant)]
Syncrip NeR1R2R3 [1]
  fold loss of affinity vs miR-3470 wild type: ~6 fold lower affinity than miR-3470 wild type

## UCACUUUGUAGACCAGGCUGG (ssRNA) [miR-3470 full-length]
Syncrip NeR1R2R3 [2]
  Kd: 0.002 ± 0.0002 µM

## GUAGACCAGGCUGG (ssRNA) [14mer miR-3470]
Syncrip NURR domain (N) [3]
  Kd: 29 ± 2 µM

## AGGCU (ssRNA) [hEXO-motif RNA]
Syncrip NeR1 R60A G97L
  binding result: no binding
Syncrip NeR1R2R3 [4]
  binding result: binds
Syncrip NURR domain (N) [5]
  binding result: binds
Syncrip NeR1
  binding result: binds
